Results published in article PMC8569584.

Columns and labels:
[1] = target: mAb KIM127; assay: mAb binding to transfected HEK293FT cells (MFI normalized to integrin expression); settings: read off a plot
[2] = target: mAb m24; assay: as above; settings: read off a plot
[3] = target: human ICAM-1 with a C-terminal Fc tag of human IgG1 (UniProt P05362); assay: ICAM-1 binding to transfected HEK293FT cells (MFI normalized to integrin expression); settings: 1 mM CaCl2 plus 1 mM MgCl2 (Ca/Mg), read off a plot
[4] = target: PAC-1; assay: PAC-1 binding to transfected HEK293FT cells (normalized MFI); settings: 1 mM Ca/Mg; parent: est. 4; read off a plot
[5] = 1 mM CaCl2 plus 1 mM MnCl2 (Ca/Mn), parent: est. 200
[6] = 1 mM CaCl2 plus 1 mM MnCl2 (Ca/Mn), parent: est. 230

Substance	response (normalized MFI) ([1]; 1 mM Ca/Mg, parent: est. 80)	response (normalized MFI) [1, 5]	response (normalized MFI) [2, 6]	response (normalized MFI) [4]	further results
integrin αLβ2 with the αL-GFFKR to GAAKR mutation and wild-type β2 (from UniProt P20701;P05107) β2:I693P	30	110	140		response (normalized MFI) ([2]; 1 mM Ca/Mg, parent: est. 98): 33
integrin αLβ2 with the αL-GFFKR to GAAKR mutation and wild-type β2 (from UniProt P20701;P05107) β2:I698P					response (normalized MFI) ([3]; parent: est. 60): 84
integrin αLβ2 with the αL-GFFKR to GAAKR mutation and wild-type β2 (from UniProt P20701;P05107) β2:L692P	120	210	210		response (normalized MFI) ([2]; 1 mM Ca/Mg, parent: est. 98): 160
integrin αLβ2 with the αL-GFFKR to GAAKR mutation and wild-type β2 (from UniProt P20701;P05107) β2:L696P	52	180	260		response (normalized MFI) ([2]; 1 mM Ca/Mg, parent: est. 98): 75
αIIb WT + β3 WT αIIb:L959C; αIIb:F992C				34	
αIIb WT + β3 WT αIIb:L959C; αIIb:F993C				37	
αIIb WT + β3 WT αIIb:L959C; αIIb:G991C				150	
αIIb WT + β3 WT αIIb:L959C; αIIb:G991C; β3:P688C				4	
αIIb WT + β3 WT β3:P688C				6	
αL/β2 WT αL:FFAA (GFFKR to GAAKR)					response (normalized MFI) ([1]; 1 mM Ca/Mg, parent: est. 18): 80; response (normalized MFI) ([1]; 1 mM CaCl2 plus 1 mM MnCl2 (Ca/Mn), parent: est. 44): 200; response (normalized MFI) ([2]; 1 mM CaCl2 plus 1 mM MnCl2 (Ca/Mn), parent: est. 58): 230; response (normalized MFI) ([3]; parent: est. 5): 60

Now from value to substance, other results behind:

response (normalized MFI) ([1]; 1 mM Ca/Mg, parent: est. 80)	response (normalized MFI) [1, 5]	response (normalized MFI) [2, 6]	response (normalized MFI) [4]	Substance	further results
60	170	200		integrin αLβ2 with the αL-GFFKR to GAAKR mutation and wild-type β2 (from UniProt P20701;P05107) β2:I690P	response (normalized MFI) ([2]; 1 mM Ca/Mg, parent: est. 98): 67
31	120	180		integrin αLβ2 with the αL-GFFKR to GAAKR mutation and wild-type β2 (from UniProt P20701;P05107) β2:V691P	response (normalized MFI) ([2]; 1 mM Ca/Mg, parent: est. 98): 30
91	190	220		integrin αLβ2 with the αL-GFFKR to GAAKR mutation and wild-type β2 (from UniProt P20701;P05107) β2:V699P	
			3	αIIb WT + β3 WT αIIb:L959C; αIIb:F992C; β3:P688C	
			3	αIIb WT + β3 WT αIIb:L959C; αIIb:F993C; β3:P688C	
			25	αIIb WT + β3 WT αIIb:L959C; αIIb:K994C	
			3	αIIb WT + β3 WT αIIb:L959C; αIIb:K994C; β3:P688C	
			110	αIIb WT + β3 WT αIIb:L959C; αIIb:R995C	
			11	αIIb WT + β3 WT αIIb:L959C; αIIb:R995C; β3:P688C	
